This is an account of results in patent US20250171542A1 (ADEPT THERAPEUTICS, published 2025).

Residue numbers refer to the chain shown, from its start.

T1: canine PD-L1 (Acro Biosystems, Cat #PDL-C52H4) (canine, UniProt E2RKZ5 19-236)
T1 construct: not shown: The vendor's tag, probably a polyhistidine tag
T1 sequence: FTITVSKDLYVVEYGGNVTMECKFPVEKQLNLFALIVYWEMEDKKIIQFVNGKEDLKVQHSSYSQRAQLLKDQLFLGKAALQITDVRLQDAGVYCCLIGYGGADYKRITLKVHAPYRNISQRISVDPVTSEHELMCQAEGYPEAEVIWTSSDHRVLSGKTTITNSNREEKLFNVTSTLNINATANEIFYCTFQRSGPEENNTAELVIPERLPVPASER

T2: BH-H2 (Sino Biological, Cat #11559-H08H) (UniProt O75144 19-258)
T2 sequence (looked up): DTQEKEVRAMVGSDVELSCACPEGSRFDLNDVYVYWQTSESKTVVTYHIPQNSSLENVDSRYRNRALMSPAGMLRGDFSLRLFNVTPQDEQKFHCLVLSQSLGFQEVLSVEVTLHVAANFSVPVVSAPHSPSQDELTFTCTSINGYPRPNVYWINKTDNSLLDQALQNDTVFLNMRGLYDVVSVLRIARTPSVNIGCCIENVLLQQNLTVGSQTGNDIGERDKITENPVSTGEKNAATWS

T3: PD-L2 (Sino Biological, Cat #10292-H08H) (UniProt Q9BQ51 20-219)
T3 sequence (looked up): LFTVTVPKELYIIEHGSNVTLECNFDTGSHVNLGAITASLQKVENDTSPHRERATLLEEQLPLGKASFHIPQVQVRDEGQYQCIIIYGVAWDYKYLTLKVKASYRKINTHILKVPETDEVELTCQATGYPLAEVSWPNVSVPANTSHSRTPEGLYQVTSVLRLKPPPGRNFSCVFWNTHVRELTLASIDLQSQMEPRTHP

B1: 28B3 (antibody, human IgG1, V domains shown)
VH: QSVEESGGRLVTPGTPLTLSCTASGFSLSSYYMIWVRQAPGKGLEYIGYVYTGSGNTWYASWAKGRFAISKASTTVDLMITSPTTEDTATYFCASGADGVYDWGWDIWGPGTLVTVSL
VL: DIVMTQTPASVEAAVGDTVTIKCQASQSIYSLLAWYQQKPGQRPKLLIAGASNLESGVPSRFSGSGSGTEYTLTISALECADAATYYCQNNYDSGRIYGLAFGGGTEVVVK
B2: 69D10 (antibody, human IgG1, V domains shown)
VH: QEQLEESGGGLVQPEGSLTLTCTASGFSFSGDWYMSWVRQAPGKGLEWIASIYSGSLNTYYATWAKGRFTVSLTSSTTVTLQMTSLTAADTATYFCARRNKNADYGHFDLWGPGTLVTVSS
VL: YDMTQTPASVEVAVGGTVTIKCQASQSIGNALAWYQQKPGQPPKLLIYATSTLASGVPSRFKGSGSGTEFTLTISDLECGDAATYYCQQGWTVSSLDNAFGGGTEVVAK
B3: 73C8 (antibody, human IgG1, V domains shown)
VH: B2 VH with A24V, W33Y, I49V, S54T, V71I
VL: B2 VL with G29N, N30D, A31R, T50A, K62R, E69D, G80A, K109M
B4: 74A9 (antibody, human IgG1, V domains shown)
VH: QSVEESGGRLVTPGTPLTLTCAVSGFSLSTYALGWVRQAPGKGLEWIGSISIGGATYYASWAKGRFTISKTSTTVDLKIASPTTEDTATYFCARNVDSIYLDAFHTWGPGTLVTVSL
VL: DIVMTQTPASVEAAVGGTVTIKCQASQNIYNNLAWYQQKPGQPPKLLIYRASTLASGVPSRFKGSGSGTEYTLTISDLECDDAATYYCQTYYLTTTTNAFGGGTEVVVK

T6 sequence (Q9NZQ7 other isoform, or with tags, fused parts or gaps C08H C08H limits assumed): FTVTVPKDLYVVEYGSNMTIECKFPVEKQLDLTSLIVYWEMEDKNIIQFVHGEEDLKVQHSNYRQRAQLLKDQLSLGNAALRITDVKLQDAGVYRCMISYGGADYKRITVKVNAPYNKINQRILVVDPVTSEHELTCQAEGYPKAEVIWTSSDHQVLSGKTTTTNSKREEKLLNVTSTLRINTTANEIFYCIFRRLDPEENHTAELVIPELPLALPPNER
T4 sequence (D4AE25 entry or part of it R08H R08H limits assumed): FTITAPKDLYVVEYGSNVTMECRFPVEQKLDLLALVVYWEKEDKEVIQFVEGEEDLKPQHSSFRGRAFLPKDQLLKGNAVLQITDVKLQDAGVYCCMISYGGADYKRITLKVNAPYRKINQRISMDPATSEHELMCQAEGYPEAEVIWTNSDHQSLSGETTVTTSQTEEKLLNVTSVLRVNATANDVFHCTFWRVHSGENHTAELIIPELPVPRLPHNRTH

One assay addresses T4, rat PD-L1 (Sino Biological, Cat #80450-R08H) (rat, UniProt D4AE25 19-239).
T4 construct: not shown: The vendor's polyhistidine tag
As to the kind of experiment: ELISA. In general terms: An ELISA detects its analyte on a solid surface through an enzyme-linked reagent.
With B1, the binding result is recorded as “no binding”.

For the molecule B2, the binding result was “no binding”.

Consider B3, for which the binding result is “no binding”.

B4: the binding result is reported as “no binding”.

For the next assay, the target named is T1, canine PD-L1 (Acro Biosystems, Cat …). As to the kind of experiment: ELISA.
With B1, the binding result is recorded as “no binding”.

For the molecule B2, the binding result was “no binding”.

For B3, the binding result is reported as “no binding”.

Regarding B4, the binding result is reported as “no binding”.

The target of another assay is T2, BH-H2 (Sino Biological, Cat #11559-H08H). As to the kind of experiment: ELISA.
B1: the binding result is “no binding”.

For the molecule B2, the binding result is reported as “no binding”.

For B3, the binding result is listed as “no binding”.

Take B4: the binding result is “no binding”.

The target in a further assay is T3, PD-L2 (Sino Biological, Cat #10292-H08H). As to the kind of experiment: ELISA.
As to B1, the binding result is on record as “no binding”.

Take B2: the binding result is on record as “no binding”.

On to B3, for which the binding result is on record as “no binding”.

In the case of B4, the binding result is reported as “no binding”.

In the next assay the target is T5, human PD-L1 expressed on cell surface (human, UniProt Q9NZQ7 19-290). The assay can be described thus: cell-based or functional assay.
T5 sequence (Q9NZQ7 19-290 limits assumed): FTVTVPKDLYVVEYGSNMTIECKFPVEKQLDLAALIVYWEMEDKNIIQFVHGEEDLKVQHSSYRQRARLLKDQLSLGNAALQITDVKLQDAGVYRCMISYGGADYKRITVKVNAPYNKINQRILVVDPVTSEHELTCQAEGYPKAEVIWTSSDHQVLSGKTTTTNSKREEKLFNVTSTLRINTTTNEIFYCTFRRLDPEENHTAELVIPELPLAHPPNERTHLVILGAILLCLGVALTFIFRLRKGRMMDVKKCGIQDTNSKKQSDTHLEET
For B1, the “Internalization (%), FACS, 0.25 µg/ml, 2 h” value came out at 20.4%; the “Internalization (%), FACS, 0.25 µg/ml, 4 h” value stood at 17.6%; the “Internalization (%), FACS, 0.5 µg/ml, 2 h” value is 12%; the “Internalization (%), FACS, 0.5 µg/ml, 4 h” value worked out at 19.9%. For the same molecule, the “Internalization (%), FACS, 1 µg/ml, 2 h” value worked out at 15.3%; the “Internalization (%), FACS, 1 µg/ml, 4 h” value was found to be 15.5%; the “Internalization (%), FACS, 2 µg/ml, 2 h” value was 8.3%; the “Internalization (%), FACS, 2 µg/ml, 4 h” value is 6%.

B2: the “Internalization (%), FACS, 0.25 µg/ml, 2 h” value was found to be 18.2%; the “Internalization (%), FACS, 0.25 µg/ml, 4 h” value was determined as 15.9%; the “Internalization (%), FACS, 0.5 µg/ml, 2 h” value was found to be 16.2%; the “Internalization (%), FACS, 0.5 µg/ml, 4 h” value was 18%. The “Internalization (%), FACS, 1 µg/ml, 2 h” value was 15.9%; the “Internalization (%), FACS, 1 µg/ml, 4 h” value amounted to 18.2%; the “Internalization (%), FACS, 2 µg/ml, 2 h” value is 17.7%; the “Internalization (%), FACS, 2 µg/ml, 4 h” value came out at 21.2%.

Consider B3, for which the “Internalization (%), FACS, 0.25 µg/ml, 2 h” value came out at 22%; the “Internalization (%), FACS, 0.25 µg/ml, 4 h” value was found to be 15.6%; the “Internalization (%), FACS, 0.5 µg/ml, 2 h” value amounted to 17.8%; the “Internalization (%), FACS, 0.5 µg/ml, 4 h” value turned out to be 23%. Also, the “Internalization (%), FACS, 1 µg/ml, 2 h” value was 19.5%; the “Internalization (%), FACS, 1 µg/ml, 4 h” value came to 15.7%; the “Internalization (%), FACS, 2 µg/ml, 2 h” value came to 22.5%; the “Internalization (%), FACS, 2 µg/ml, 4 h” value was 21.7%.

Turning to B4, the “Internalization (%), FACS, 0.25 µg/ml, 2 h” value turned out to be 11.5%; the “Internalization (%), FACS, 0.25 µg/ml, 4 h” value was 11%; the “Internalization (%), FACS, 0.5 µg/ml, 2 h” value came out at 13.2%; the “Internalization (%), FACS, 0.5 µg/ml, 4 h” value is 12%. Moreover, the “Internalization (%), FACS, 1 µg/ml, 2 h” value stood at 17.7%; the “Internalization (%), FACS, 1 µg/ml, 4 h” value came to 9.2%; the “Internalization (%), FACS, 2 µg/ml, 2 h” value stood at 13.9%; the “Internalization (%), FACS, 2 µg/ml, 4 h” value turned out to be 11.7%.

Another assay addresses T6, cynomolgus PD-L1-His (Sino Biological, Cat. 90251-C08H) (cynomolgus, UniProt Q9NZQ7 19-238 (human entry)).
T6 construct: Bought protein; also called Cyno PD-L1; Cynomolgus PD-L1 ECD-His; not shown: His tag
The assay can be described thus: ELISA, coated cyno PD-L1-His. As to the method:
(§1) Briefly, Maxisorp plates (Nunc) were coated with 100 ul/well of 0.5 μg/ml human PD-L1-His (Sino Biological, Cat #10084-H08H) or cynomolgus PD-L1-His (Sino Biological, Cat. 90251-C08H) protein diluted in 1×PBS (GIBCO) overnight at 4° C. Plates were washed three times with 300 μl/well washing buffer (1×PBST, diluted from 20×PBST (Thermo Scientific) with distilled water)) and then blocked with 300 μl/well of blocking buffer (1×PBST/I % BSA) for 2 hours at RT on shaker (100 rpm). Plates were washed and added with 100 μl/well of testing antibodies, which were serial diluted with assay buffer (PBST/1% BSA). The antibodies were incubated at room temperature for 2 hours on plate shaker at 100 rpm. Plates were washed. One hundred microliter of horseradish peroxidase (HRP) conjugated detection antibody was added into each well and incubated at room temperature for 1 hour on plate shaker at 100 rpm. Plates were washed and added with 100 μl/well TMB substrate for color development at room temperature in dark for up to 10 minutes. After addition of 50 μl/well of stop solution (1N H₂SO₄), plates were read at 450 nm on a plate reader (SpectraMax M5).
(§2) Anti-HEL isotype control (Biolntron) was used as negative control.
In turn, B1 came in with an EC50 of 17.7 pM.

With B2, the EC50 was determined as 17.7 pM.

With B3, the EC50 was 12.1 pM.

On to B4, for which the EC50 came to 19.8 pM.

The target in a further assay is T7, human PD-L1-His (Sino Biological, Cat #10084-H08H) (human, UniProt Q9NZQ7 19-238).
T7 construct: Bought protein; also called human PD-L1 ECD-His; recombinant human PD-L1-His protein; not shown: His tag
T7 sequence (Q9NZQ7 19-238): as the sequence (Q9NZQ7 other isoform, or with tags, fused parts or gaps C08H C08H limits assumed) above, with T33A, S34A, N62S, Q68R, R82Q, L173F, A185T, I192T, L215H counted along it
The assay can be described thus: ELISA, coated human PD-L1-His. As to the method: as §1, §2
With B1, the EC50 was 15.9 pM.

For the molecule B2, the EC50 was 21.5 pM.

On to B3, for which a half-maximal response (EC50) required 16 pM.

On to B4, for which the EC50 worked out at 22.9 pM.

For another assay, the target named is T6, cynomolgus PD-L1-His (Sino Biological, …). As to the kind of experiment: BLI (Gator), cynomolgus PD-L1.
B1: the affinity, expressed as Kd, was 330 pM; the off-rate (koff) is 0.000132 s⁻¹; the kon was 403000 M⁻¹ s⁻¹.

For the molecule B2, the Kd was found to be 180 pM, the koff is 7.7e-05 s⁻¹ and the kon amounted to 428000 M⁻¹ s⁻¹.

B3 came in with an equilibrium dissociation constant (Kd) of no more than 30 pM, a koff of no more than 1e-05 s⁻¹ and a kon of 344000 M⁻¹ s⁻¹.

B4 showed a dissociation constant (Kd) of 3090 pM, a koff of 0.000915 s⁻¹ and a kon of 296000 M⁻¹ s⁻¹.

The next assay addresses T5, human PD-L1 expressed on cell surface. As to the kind of experiment: flow cytometry, MDA-MB-231-GFP cells. As for the experimental part:
Cells were then resuspended in FACS buffer (1×DPBS/1% FBS) at 10⁶/ml concentration. One hundred microliter (100 μl) of cells were aliquoted into a single well in 96 well plates. The antibodies to be tested were serially diluted at 1:3 fold starting at 15 ug/mL and were then added into each well. The antibodies were mixed with cells and the mixtures were incubated on ice for 1 hour. […] After washing with FACS buffer, stained cells were resuspended at diluted […] (Biolegend, Cat #420404, used at 1:100 dilution) and analyzed on Guava 11HT (Luminex). Data was analyzed using Flowjo software.
as §2
For orientation: Flow cytometry measures light scatter and fluorescence of single cells or particles in a stream.
B1 registered an EC50 of 100 pM.

B2 displayed an EC50 of 2000 pM.

On to B3, for which the EC50 came to 1810 pM.

Turning to B4, the midpoint of the response, the EC50, lay at 340 pM.

A further assay has as its target T7, human PD-L1-His (Sino Biological, Cat …). The assay can be described thus: BLI (Gator), antibody on HFC probe, human PD-L1-His in solution. As to the method: The affinity of the binding of the exemplary anti-PD-L1 antibodies of the present disclosure was determined. Assay was performed according to the protocol recommended by Gator or Gator Plus (Gator Bio Inc.). Briefly, human PD-L1-His (Sino Biological, Cat #10084-H08H) was serially diluted 4-fold, starting at 4 μg/ml. After three times of regeneration in generation buffer (Gator Bio, Cat #120012) and neutralization of HFC probe (Gator Bio, Cat #160003), 1 μg/ml of antibody to be tested in Q buffer (Gator Bio, Cat #120010) was immobilized onto HFC probe. After a baseline step, probe immobilized with antibody was dipped into antigen solutions. The association and dissociation of antigen from antibody was measured on BLI machine Gator. Affinity was calculated using Gator Bio analysis software.
Table 22 below summarizes the binding affinity to human PD-L1 using Gator.
B1: the Kd stood at 90 pM, the koff was found to be 7.6e-05 s⁻¹ and the on-rate (kon) was 810000 M⁻¹ s⁻¹.

Molecule B2 yielded a dissociation constant Kd of 9090 pM, a koff of 0.00653 s⁻¹ and a kon of 718000 M⁻¹ s⁻¹.

As to B3, the affinity, expressed as Kd, was 120 pM; the koff was determined as 9.39e-05 s⁻¹; the kon was found to be 804000 M⁻¹ s⁻¹.

Molecule B4 had a Kd of 360 pM, a dissociation rate constant (koff) of 0.000234 s⁻¹ and a kon of 643000 M⁻¹ s⁻¹.

A word on the EC50: it is the midpoint of the concentration-response curve. A lower EC50 goes with higher potency in that assay. One may read the Kd as the equilibrium constant for the complex coming apart. High values mean weaker binding, low ones tighter binding. For orientation: koff means the first-order rate constant of dissociation. What is called kon is the rate constant with which the complex forms. High values mean faster complex formation, low ones slower complex formation.
